Measured values from paper PMC9482650, “Quantitative fragmentomics allow affinity mapping of interactomes” (Nature Communications, 2022).

T1: DVL3, Q92997
T1 sequence (Q92997 244-331, limits assumed, looked up): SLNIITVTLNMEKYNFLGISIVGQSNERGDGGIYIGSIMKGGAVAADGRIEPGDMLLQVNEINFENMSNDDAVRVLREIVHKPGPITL

T2: SHANK1, Q9Y566
T2 sequence (Q9Y566 658-767, limits assumed, looked up): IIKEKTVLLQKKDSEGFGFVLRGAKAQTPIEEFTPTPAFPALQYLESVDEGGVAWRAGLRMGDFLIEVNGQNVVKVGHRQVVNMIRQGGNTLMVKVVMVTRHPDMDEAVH

T3: NHERF3_4, Q5T2W1
T3 sequence (Q5T2W1 373-468, limits assumed, looked up): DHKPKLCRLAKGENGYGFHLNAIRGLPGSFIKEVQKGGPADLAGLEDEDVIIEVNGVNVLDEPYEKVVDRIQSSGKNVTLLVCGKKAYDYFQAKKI

T4: DLG3_2, Q92796
T4 sequence (Q92796 221-321, limits assumed, looked up): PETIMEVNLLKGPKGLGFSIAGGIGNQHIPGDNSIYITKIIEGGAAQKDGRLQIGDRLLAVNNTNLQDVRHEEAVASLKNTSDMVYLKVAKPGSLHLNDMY

T5: APBA2_1, Q99767
T5 sequence (Q99767 563-664, limits assumed, looked up): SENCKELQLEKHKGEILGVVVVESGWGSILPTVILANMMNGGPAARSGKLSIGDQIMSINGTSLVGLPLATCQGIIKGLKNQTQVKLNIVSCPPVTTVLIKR

T6: MPDZ_12, O75970
T6 sequence (O75970 1857-1958, limits assumed, looked up): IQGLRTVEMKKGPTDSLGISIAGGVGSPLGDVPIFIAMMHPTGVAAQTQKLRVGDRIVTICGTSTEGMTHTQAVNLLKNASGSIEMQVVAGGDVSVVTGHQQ

T7: SNTG2, Q9NY99
T7 sequence (Q9NY99 68-166, limits assumed, looked up): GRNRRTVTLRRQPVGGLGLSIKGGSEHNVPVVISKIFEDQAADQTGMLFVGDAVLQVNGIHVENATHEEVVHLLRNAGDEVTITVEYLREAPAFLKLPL

T8: DLG3_1, Q92796
T8 sequence (Q92796 125-227, limits assumed, looked up): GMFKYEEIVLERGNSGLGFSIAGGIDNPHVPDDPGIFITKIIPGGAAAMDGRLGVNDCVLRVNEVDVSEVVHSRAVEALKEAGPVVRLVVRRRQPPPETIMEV

T9: PARD3B_1, Q8TEW8
T9 sequence (Q8TEW8 196-299, limits assumed, looked up): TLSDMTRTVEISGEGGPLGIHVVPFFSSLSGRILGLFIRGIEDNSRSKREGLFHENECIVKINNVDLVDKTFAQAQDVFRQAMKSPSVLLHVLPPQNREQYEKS

T10: RHPN1, Q8TCX5
T10 sequence (Q8TCX5 508-602, limits assumed, looked up): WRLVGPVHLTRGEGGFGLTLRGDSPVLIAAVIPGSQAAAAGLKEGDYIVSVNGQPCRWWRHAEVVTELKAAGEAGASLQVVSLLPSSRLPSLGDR

B1: ITK, Q08881 (peptide)
chain: QLAEIAESGL

target: GORASP2, Q9H8Y8; experiment: holdup assay; parameters: key: below the threshold = too weak to quantify, mostly under pKd 3.1 to 4; conditions: plain residues with an end cap or a label only (N-terminal biotin on a linker: ado-ado)

Row | Binder | pKd
1 | B1 | below the threshold

target: TJP1_2, Q07157; experiment: holdup assay; parameters: key: below the threshold = too weak to quantify, mostly under pKd 3.1 to 4; conditions: plain residues with an end cap or a label only (N-terminal biotin on a linker: ado-ado)
Sequence (Q07157 181-274): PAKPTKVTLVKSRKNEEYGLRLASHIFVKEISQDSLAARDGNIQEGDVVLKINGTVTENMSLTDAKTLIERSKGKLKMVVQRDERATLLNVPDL

Row | Binder | pKd
2 | B1 | below the threshold

target: GRID2IP_2, A4D2P6; experiment: holdup assay; parameters: key: below the threshold = too weak to quantify, mostly under pKd 3.1 to 4; conditions: plain residues with an end cap or a label only (N-terminal biotin on a linker: ado-ado)
Sequence (A4D2P6 272-370): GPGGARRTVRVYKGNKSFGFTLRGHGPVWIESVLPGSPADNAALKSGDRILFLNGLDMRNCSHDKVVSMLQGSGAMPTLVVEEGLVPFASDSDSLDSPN

Row | Binder | pKd
3 | B1 | 3.61

target: T1, DVL3, Q92997; experiment: holdup assay; parameters: key: below the threshold = too weak to quantify, mostly under pKd 3.1 to 4; conditions: plain residues with an end cap or a label only (N-terminal biotin on a linker: ado-ado)

Row | Binder | pKd
4 | B1 | below the threshold

target: T2, SHANK1, Q9Y566; experiment: holdup assay; parameters: key: below the threshold = too weak to quantify, mostly under pKd 3.1 to 4; conditions: plain residues with an end cap or a label only (N-terminal biotin on a linker: ado-ado)

Row | Binder | pKd
5 | B1 | 3.76

target: T3, NHERF3_4, Q5T2W1; experiment: holdup assay; parameters: key: below the threshold = too weak to quantify, mostly under pKd 3.1 to 4; conditions: plain residues with an end cap or a label only (N-terminal biotin on a linker: ado-ado)

Row | Binder | pKd
6 | B1 | 3.54

target: Inadl_8, Q8NI35; experiment: holdup assay; parameters: key: below the threshold = too weak to quantify, mostly under pKd 3.1 to 4; conditions: plain residues with an end cap or a label only (N-terminal biotin on a linker: ado-ado)
Sequence (Q8NI35 1425-1530): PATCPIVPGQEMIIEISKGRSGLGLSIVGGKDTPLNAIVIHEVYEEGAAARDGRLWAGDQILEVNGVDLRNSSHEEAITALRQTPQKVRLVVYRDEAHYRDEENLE

Row | Binder | pKd
7 | B1 | 3.52

target: SCRIB_2, Q14160; experiment: holdup assay; parameters: key: below the threshold = too weak to quantify, mostly under pKd 3.1 to 4; conditions: plain residues with an end cap or a label only (N-terminal biotin on a linker: ado-ado)
Sequence (Q14160 857-960): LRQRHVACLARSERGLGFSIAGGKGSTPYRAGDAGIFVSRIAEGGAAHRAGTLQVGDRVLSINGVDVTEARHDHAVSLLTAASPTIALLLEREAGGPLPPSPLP

Row | Binder | pKd
8 | B1 | 3.6

target: MAST1, Q9Y2H9; experiment: holdup assay; parameters: key: below the threshold = too weak to quantify, mostly under pKd 3.1 to 4; conditions: plain residues with an end cap or a label only (N-terminal biotin on a linker: ado-ado)
Sequence (Q9Y2H9 962-1065): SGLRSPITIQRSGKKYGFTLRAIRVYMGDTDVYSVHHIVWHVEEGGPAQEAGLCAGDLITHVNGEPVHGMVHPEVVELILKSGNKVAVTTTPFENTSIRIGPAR

Row | Binder | pKd
9 | B1 | 4.54

target: GOPC, Q9HD26; experiment: holdup assay; parameters: key: below the threshold = too weak to quantify, mostly under pKd 3.1 to 4; conditions: plain residues with an end cap or a label only (N-terminal biotin on a linker: ado-ado)

Row | Binder | pKd
10 | B1 | 3.73

target: T4, DLG3_2, Q92796; experiment: holdup assay; parameters: key: below the threshold = too weak to quantify, mostly under pKd 3.1 to 4; conditions: plain residues with an end cap or a label only (N-terminal biotin on a linker: ado-ado)

Row | Binder | pKd
11 | B1 | below the threshold

target: T5, APBA2_1, Q99767; experiment: holdup assay; parameters: key: below the threshold = too weak to quantify, mostly under pKd 3.1 to 4; conditions: plain residues with an end cap or a label only (N-terminal biotin on a linker: ado-ado)

Row | Binder | pKd
12 | B1 | 3.58

target: T6, MPDZ_12, O75970; experiment: holdup assay; parameters: key: below the threshold = too weak to quantify, mostly under pKd 3.1 to 4; conditions: plain residues with an end cap or a label only (N-terminal biotin on a linker: ado-ado)

Row | Binder | pKd
13 | B1 | 3.53

target: MAST2, Q6P0Q8; experiment: holdup assay; parameters: key: below the threshold = too weak to quantify, mostly under pKd 3.1 to 4; conditions: plain residues with an end cap or a label only (N-terminal biotin on a linker: ado-ado)
Sequence (Q6P0Q8 1099-1202): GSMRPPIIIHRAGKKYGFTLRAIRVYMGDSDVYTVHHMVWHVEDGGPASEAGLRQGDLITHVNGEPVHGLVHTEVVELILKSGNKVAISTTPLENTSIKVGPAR

Row | Binder | pKd
14 | B1 | 5.28

target: PARD3_3, Q8TEW0; experiment: holdup assay; parameters: key: below the threshold = too weak to quantify, mostly under pKd 3.1 to 4; conditions: plain residues with an end cap or a label only (N-terminal biotin on a linker: ado-ado)
Sequence (Q8TEW0 582-685): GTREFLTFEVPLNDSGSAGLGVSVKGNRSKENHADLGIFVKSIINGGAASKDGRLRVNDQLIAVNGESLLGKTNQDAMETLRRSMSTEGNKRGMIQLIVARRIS

Row | Binder | pKd
15 | B1 | below the threshold

target: T7, SNTG2, Q9NY99; experiment: holdup assay; parameters: key: below the threshold = too weak to quantify, mostly under pKd 3.1 to 4; conditions: plain residues with an end cap or a label only (N-terminal biotin on a linker: ado-ado)

Row | Binder | pKd
16 | B1 | 3.82

target: FRMPD2_1, Q68DX3; experiment: holdup assay; parameters: key: below the threshold = too weak to quantify, mostly under pKd 3.1 to 4; conditions: plain residues with an end cap or a label only (N-terminal biotin on a linker: ado-ado)
Sequence (Q68DX3 770-861): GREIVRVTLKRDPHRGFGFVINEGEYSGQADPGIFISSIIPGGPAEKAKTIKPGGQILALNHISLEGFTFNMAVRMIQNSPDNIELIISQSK

Row | Binder | pKd
17 | B1 | below the threshold

target: T8, DLG3_1, Q92796; experiment: holdup assay; parameters: key: below the threshold = too weak to quantify, mostly under pKd 3.1 to 4; conditions: plain residues with an end cap or a label only (N-terminal biotin on a linker: ado-ado)

Row | Binder | pKd
18 | B1 | 3.56

target: GRIP2_4, Q9C0E4; experiment: holdup assay; parameters: key: below the threshold = too weak to quantify, mostly under pKd 3.1 to 4; conditions: plain residues with an end cap or a label only (N-terminal biotin on a linker: ado-ado)
Sequence (Q9C0E4 446-548): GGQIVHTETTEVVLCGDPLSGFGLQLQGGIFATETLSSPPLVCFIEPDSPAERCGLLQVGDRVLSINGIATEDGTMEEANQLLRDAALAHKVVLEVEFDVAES

Row | Binder | pKd
19 | B1 | 3.49

target: LNX1_2, Q8TBB1; experiment: holdup assay; parameters: key: below the threshold = too weak to quantify, mostly under pKd 3.1 to 4; conditions: plain residues with an end cap or a label only (N-terminal biotin on a linker: ado-ado)
Sequence (Q8TBB1 371-470): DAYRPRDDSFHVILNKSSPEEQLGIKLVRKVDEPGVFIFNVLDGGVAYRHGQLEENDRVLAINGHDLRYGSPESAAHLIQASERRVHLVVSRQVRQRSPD

Row | Binder | pKd
20 | B1 | below the threshold

target: Inadl_6, Q8NI35; experiment: holdup assay; parameters: key: below the threshold = too weak to quantify, mostly under pKd 3.1 to 4; conditions: plain residues with an end cap or a label only (N-terminal biotin on a linker: ado-ado)
Sequence (Q8NI35 1058-1167): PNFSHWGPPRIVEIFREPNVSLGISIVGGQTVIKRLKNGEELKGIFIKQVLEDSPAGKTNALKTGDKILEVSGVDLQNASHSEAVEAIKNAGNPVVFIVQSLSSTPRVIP

Row | Binder | pKd
21 | B1 | below the threshold

target: SCRIB_1, Q14160; experiment: holdup assay; parameters: key: below the threshold = too weak to quantify, mostly under pKd 3.1 to 4; conditions: plain residues with an end cap or a label only (N-terminal biotin on a linker: ado-ado)
Sequence (Q14160 718-814): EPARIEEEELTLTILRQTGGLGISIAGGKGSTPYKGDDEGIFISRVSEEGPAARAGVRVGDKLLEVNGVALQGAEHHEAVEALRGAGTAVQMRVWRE

Row | Binder | pKd
22 | B1 | 3.75

target: T9, PARD3B_1, Q8TEW8; experiment: holdup assay; parameters: key: below the threshold = too weak to quantify, mostly under pKd 3.1 to 4; conditions: plain residues with an end cap or a label only (N-terminal biotin on a linker: ado-ado)

Row | Binder | pKd
23 | B1 | 3.63

target: LIMK2, P53671; experiment: holdup assay; parameters: key: below the threshold = too weak to quantify, mostly under pKd 3.1 to 4; conditions: plain residues with an end cap or a label only (N-terminal biotin on a linker: ado-ado)
Sequence (P53671 143-248): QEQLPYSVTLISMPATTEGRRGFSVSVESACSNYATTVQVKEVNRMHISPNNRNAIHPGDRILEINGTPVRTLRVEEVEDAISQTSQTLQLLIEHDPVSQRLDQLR

Row | Binder | pKd
24 | B1 | below the threshold

target: LNX1_1, Q8TBB1; experiment: holdup assay; parameters: key: below the threshold = too weak to quantify, mostly under pKd 3.1 to 4; conditions: plain residues with an end cap or a label only (N-terminal biotin on a linker: ado-ado)
Sequence (Q8TBB1 261-371): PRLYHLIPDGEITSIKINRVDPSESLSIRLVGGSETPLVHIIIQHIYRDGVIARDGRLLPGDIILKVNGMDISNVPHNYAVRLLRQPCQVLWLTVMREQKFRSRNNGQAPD

Row | Binder | pKd
25 | B1 | 3.9

target: IL16_3, Q14005; experiment: holdup assay; parameters: key: below the threshold = too weak to quantify, mostly under pKd 3.1 to 4; conditions: plain residues with an end cap or a label only (N-terminal biotin on a linker: ado-ado)
Sequence (Q14005 1107-1207): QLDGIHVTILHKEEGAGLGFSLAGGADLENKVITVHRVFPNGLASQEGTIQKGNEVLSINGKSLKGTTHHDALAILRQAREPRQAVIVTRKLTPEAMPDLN

Row | Binder | pKd
26 | B1 | 3.74

target: T10, RHPN1, Q8TCX5; experiment: holdup assay; parameters: key: below the threshold = too weak to quantify, mostly under pKd 3.1 to 4; conditions: plain residues with an end cap or a label only (N-terminal biotin on a linker: ado-ado)

Row | Binder | pKd
27 | B1 | 3.83
